± gives the uncertainty stated by the source.
Assay: self-splicing fitness, log relative to wild type (ln ratio); higher = more splicing; Tetrahymena group I intron in knt gene, E. coli kanamycin selection, DiMSum; sequences stand for … in CUCUCU…GGAGGGAAAAGUUAUCAGGCAUGCACCUGGUAGCUAGUCUUUAAACCAAUAGAUUGCAUCGGUUUAAAAGGCAAGACCGUCAAAUUGCGGGAAAGGGGUCAACAGCCGUUCAGUACCAAGUCUCAGGGGAAACUUUGAGAUGGCCUUGCAAAGGGUAUGGUAAUAAGCUGACGGACAUGGUCCUAACCACGCAGCCAAGUCCUAAGUCAACAGAUCUUCUGUUGAUAUGGAUGCAGUUCACAGACUAAAUGUCGGUCGGGGAAGAUGUAUUCUUCUCAUAAGAUAUAGUCGGACCUCUCCUUAAUGGGAGCUAGCGGAUGAAGUGAUGCAACACUGGAGCCGCUGGGAACUAAUUUGUAUGCGAAAGUAUAUUGAUUAGUUUUGGAGUACUCGUGGUCG
Summary of the method: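 Library with all eight P1ex-region intron nucleotides randomised, intron inside the knt kanamycin-resistance gene on pET-22b(+), in E. coli BL21(DE3). Cells grew overnight at 37°C or 30°C on LB agar with or without 25 μg/mL kanamycin (plus 100 μg/mL carbenicillin, 50 μM IPTG, 0.2% rhamnose), in six replicate transformations. Pooled colonies were amplicon-sequenced on Illumina HiSeq 2500. DiMSum fitness is the error-weighted combination of wild-type-normalised replicate fold changes, kanamycin versus none.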

Sequence | self-splicing fitness (ln) (30 °C) | self-splicing fitness (ln) (37 °C)
UAUAAGCAAUAUUACGGACG | 0.119 ± 0.088 | 0.194 ± 0.11
AGAGAGCAAUAUUACGCAAU | -3.58 ± 0.43 | -2.48 ± 0.29
AGUCAGCAAUAUUACGUAUA | -2.69 ± 0.12 | -1.33 ± 0.1
UGGGAGCAAUAUUACGGUAG | -3.16 ± 0.28 | -1.26 ± 0.21
AUCAAGCAAUAUUACGGGAA | -1.87 ± 0.13 | -0.563 ± 0.12
AAUUAGCAAUAUUACGAAGG | -2.79 ± 0.23 | -1.88 ± 0.35
GAUCAGCAAUAUUACGCUGG | -3.48 ± 0.21 | -3.18 ± 0.27
CUGUAGCAAUAUUACGCUUG | -2.62 ± 0.14 | -2.02 ± 0.16
CGCCAGCAAUAUUACGGCCG | -2.9 ± 0.14 | -0.755 ± 0.18
GUCCAGCAAUAUUACGGUAG | -2.08 ± 0.083 | -1.61 ± 0.096
AGAAAGCAAUAUUACGGCUU | -1.26 ± 0.072 | -0.7 ± 0.089
UGCAAGCAAUAUUACGCGUG | -3.54 ± 0.14 | -3.15 ± 0.2
UUUGAGCAAUAUUACGCCCU | -1.25 ± 0.41 | -1.96 ± 0.41
CUCGAGCAAUAUUACGCUUA | -2.27 ± 0.47 | -2.22 ± 0.34
AUUAAGCAAUAUUACGGUAC | -3.84 ± 0.47 | -1.6 ± 0.2
UGCUAGCAAUAUUACGACCU | -0.548 ± 0.088 | -0.345 ± 0.1
UUCGAGCAAUAUUACGCUGA | -2.66 ± 0.45 | -1.89 ± 0.44
UCUAAGCAAUAUUACGGCAU | -3.46 ± 0.26 | -2.55 ± 0.21
GUCAAGCAAUAUUACGGUCA | -1.24 ± 0.12 | -0.86 ± 0.12
GAUGAGCAAUAUUACGGAUC | -2.36 ± 0.23 | -1.78 ± 0.19
GUGAAGCAAUAUUACGGUUU | -2.86 ± 0.084 | -0.906 ± 0.11
GCCCAGCAAUAUUACGACGA | -1.31 ± 0.15 | -0.475 ± 0.15
UAAAAGCAAUAUUACGGAGG | -2.7 ± 0.17 | -2.07 ± 0.16
UUCCAGCAAUAUUACGGGCG | -0.245 ± 0.081 | 0.254 ± 0.097

Sequence | self-splicing fitness (ln) (30 °C) | self-splicing fitness (ln) (37 °C)
UCCAAGCAAUAUUACGGUCG | -2.37 ± 0.097 | -0.886 ± 0.099
CGAGAGCAAUAUUACGCGGC |  | -1.9 ± 0.41
UUUGAGCAAUAUUACGUCAA | -1.66 ± 0.21 | -2.66 ± 0.37
GAGAAGCAAUAUUACGCGUA | -1.03 ± 0.12 | -1.1 ± 0.13
AGCGAGCAAUAUUACGUGAA | -3.44 ± 0.19 | -1.23 ± 0.2
AAACAGCAAUAUUACGAUUU | -0.279 ± 0.053 | 0.219 ± 0.071
CGUGAGCAAUAUUACGUGUU | -3.22 ± 0.3 | -2.86 ± 0.32
AAUAAGCAAUAUUACGGGUG | -1.59 ± 0.12 | -1.04 ± 0.11
AAAGAGCAAUAUUACGUCUC | -3.18 ± 0.29 | -1.47 ± 0.18
GGGAAGCAAUAUUACGCCGA | -1.78 ± 0.17 | -0.238 ± 0.12
GAAAAGCAAUAUUACGCUUC | -3.71 ± 0.12 | -2.77 ± 0.14
CUACAGCAAUAUUACGCUAC | -3.78 ± 0.22 | -2.25 ± 0.24
GCCAAGCAAUAUUACGCGUG | -3.46 ± 0.11 | -1.97 ± 0.1
CUGCAGCAAUAUUACGAAGC | -2.78 ± 0.28 | -2.6 ± 0.28
GCCGAGCAAUAUUACGCCUG | -3.59 ± 0.23 | -2.03 ± 0.22
CGACAGCAAUAUUACGGAUG | -0.977 ± 0.051 | -0.0449 ± 0.059
AAUCAGCAAUAUUACGAGGC | -3.28 ± 0.25 | -2.47 ± 0.23
CGCAAGCAAUAUUACGCUCU | -1.26 ± 0.093 | -0.475 ± 0.094
CGCCAGCAAUAUUACGGAAA | -1.48 ± 0.17 | -1.93 ± 0.17
UUCUAGCAAUAUUACGUUGC | -4.72 ± 0.39 | -2.64 ± 0.22
CGUAAGCAAUAUUACGGGAC | -2.9 ± 0.29 | -2.47 ± 0.41
CAAUAGCAAUAUUACGAGGU | -4.24 ± 0.28 | -1.93 ± 0.21
CUCUAGCAAUAUUACGUAAU | -3.59 ± 0.26 | -3.77 ± 0.46
AGACAGCAAUAUUACGCUAA | -2.17 ± 0.11 | -0.0364 ± 0.1

Sequence | self-splicing fitness (ln) (30 °C) | self-splicing fitness (ln) (37 °C)
UUGUAGCAAUAUUACGUCAG | -1.12 ± 0.22 | -0.45 ± 0.19
CCAUAGCAAUAUUACGCCCG | -0.369 ± 0.16 | 0.418 ± 0.21
CCGUAGCAAUAUUACGGAGU | -2.68 ± 0.16 | -2.33 ± 0.22
UUUCAGCAAUAUUACGAUGU | -2.13 ± 0.13 | -1.47 ± 0.15
GAGUAGCAAUAUUACGCGGU | -3.68 ± 0.31 | -2.78 ± 0.48
AGAUAGCAAUAUUACGAAUG | -2.62 ± 0.13 | -1.32 ± 0.11
CGGAAGCAAUAUUACGGGGU | -2.39 ± 0.27 | -3.41 ± 0.43
ACACAGCAAUAUUACGACAU | -0.676 ± 0.01 | -0.0836 ± 0.031
UAUAAGCAAUAUUACGACUU | -0.386 ± 0.13 | -0.681 ± 0.13
GAUCAGCAAUAUUACGGUAA | -0.559 ± 0.075 | 0.194 ± 0.07
GCUCAGCAAUAUUACGAGCG | -2.81 ± 0.16 | -0.923 ± 0.11
ACAGAGCAAUAUUACGGCAG | -2.25 ± 0.14 | -2.45 ± 0.22
GUUCAGCAAUAUUACGAAGA | -0.456 ± 0.086 | 0.147 ± 0.1
CAGCAGCAAUAUUACGAUUC | -3.27 ± 0.25 | -1.78 ± 0.16
UAUGAGCAAUAUUACGUCUU | -2.71 ± 0.27 | -1.93 ± 0.23
GAAUAGCAAUAUUACGCUCU | -1.58 ± 0.12 | -1.4 ± 0.14
UAUAAGCAAUAUUACGGACC | -2.68 ± 0.16 | -2.07 ± 0.22
GCAAAGCAAUAUUACGUAUA | -1.65 ± 0.19 | -1.48 ± 0.19
ACGCAGCAAUAUUACGAAUC | -4.07 ± 0.34 | -2.11 ± 0.22
CGCCAGCAAUAUUACGCACA | -1.68 ± 0.2 | -1.65 ± 0.27
CAACAGCAAUAUUACGACAG | -0.131 ± 0.073 | 0.499 ± 0.09
CGCGAGCAAUAUUACGAACC |  | -0.306 ± 0.33
CGCAAGCAAUAUUACGUCGC | -2.24 ± 0.19 | -3.19 ± 0.29
CGAUAGCAAUAUUACGGUAG | -1.41 ± 0.11 | -0.461 ± 0.11

Sequence | self-splicing fitness (ln) (30 °C) | self-splicing fitness (ln) (37 °C)
AGCUAGCAAUAUUACGUAUC | -3.55 ± 0.18 | -3.09 ± 0.24
AGUUAGCAAUAUUACGGGAA | -2.22 ± 0.19 | -1.05 ± 0.16
CUAUAGCAAUAUUACGGUAU | -4.43 ± 0.36 | -3.22 ± 0.27
CCAGAGCAAUAUUACGUCAA | -4.08 ± 0.39 | -2.3 ± 0.35
AAUAAGCAAUAUUACGACAG | -1.64 ± 0.13 | -0.432 ± 0.14
GCACAGCAAUAUUACGGAAG | -3.04 ± 0.13 | -2.11 ± 0.13
UCGGAGCAAUAUUACGUCUA | -2.52 ± 0.14 | -1.89 ± 0.14
CGACAGCAAUAUUACGAGGU | -3.14 ± 0.33 | -1.73 ± 0.2
GCCAAGCAAUAUUACGGCCA | -1.42 ± 0.21 | -1.18 ± 0.25
GCAAAGCAAUAUUACGGCUC | -0.596 ± 0.062 | 0.305 ± 0.081
ACUGAGCAAUAUUACGCACC | -2 ± 0.4 | -2.15 ± 0.42
CACAAGCAAUAUUACGAUGG | -0.756 ± 0.045 | 0.369 ± 0.07
UGCCAGCAAUAUUACGGACC | -0.869 ± 0.2 | 0.326 ± 0.23
UUCUAGCAAUAUUACGCUAU | -4.08 ± 0.29 | -1.42 ± 0.15
GUCGAGCAAUAUUACGUUAU | -0.538 ± 0.12 | -2.13 ± 0.21
AAAAAGCAAUAUUACGAGUU | -1.33 ± 0.065 | -0.488 ± 0.07
UAGCAGCAAUAUUACGCUUA | -0.452 ± 0.084 | -0.689 ± 0.087
UGAAAGCAAUAUUACGAACA | -0.213 ± 0.064 | 0.349 ± 0.08
CUUGAGCAAUAUUACGUAAC | -1.67 ± 0.38 | 
AAUGAGCAAUAUUACGGGCC |  | -1.76 ± 0.39
CGAGAGCAAUAUUACGCUUA | -2.49 ± 0.23 | -2.13 ± 0.46
CGUUAGCAAUAUUACGUUUG | -1.01 ± 0.08 | -0.558 ± 0.1
GUAUAGCAAUAUUACGUAGG | -3.15 ± 0.16 | -1.47 ± 0.14
GGUUAGCAAUAUUACGUUCG | -0.206 ± 0.089 | 0.151 ± 0.11
